Publication doi:10.1101/2022.06.21.496973

What was measured:
[1] = target: 6XHis-1024-1090 (Abl2 site II fragment) (murine) (UniProt Q4JIM5); experiment: BLI
[2] = target: 6XHis-688-924 (Abl2 site I fragment) (murine) (UniProt Q4JIM5); experiment: BLI
[3] = target: 6XHis-557-C (Abl2 C-terminal half) (murine) (UniProt Q4JIM5); experiment: BLI
[4] = target: 6XHis-Abl2 (murine Abl2, residues 74-1182) (murine) (UniProt Q4JIM5); experiment: BLI
[5] = target: taxol-stabilized microtubules (co-sedimentation assays) (porcine) (UniProt P02550); experiment: co-sedimentation
[6] = target: taxol-stabilized rhodamine-labeled, biotinylated microtubules stored overnight at 23°C or 37°C (damaged MTs) (porcine) (UniProt P02550); experiment: TIRF microscopy of eGFP fluorescence on immobilised microtubules

| Substance | Kd [1] [nM] | Kd [2] [nM] | Kd [3] [nM] | Kd [4] [nM] | Kd [5] [nM] | mean fluorescence intensity per µm on MTs stored at 23°C [6] [a.u.·µm^-1] | mean fluorescence intensity per µm on MTs stored at 37°C [6] [a.u.·µm^-1] | mean intensity on borders of damage, MTs stored at 23°C [6] [a.u.] | mean intensity on borders of damage, MTs stored at 37°C [6] [a.u.] | mean intensity on lattices, MTs stored at 23°C [6] [a.u.] | mean intensity on lattices, MTs stored at 37°C [6] [a.u.] |
| --- | --- | --- | --- | --- | --- | --- | --- | --- | --- | --- | --- |
| porcine brain tubulin dimers (from UniProt P02550 1-451; Q767L7 1-444) (complex) | 252 | 118 | 17 | 42 |  |  |  |  |  |  |  |
| 6XHis-Abl2Δ688-790 (naturally occurring splice isoform) (from UniProt Q4JIM5 74-1182) (natural protein) |  |  |  |  | 400 |  |  |  |  |  |  |
| Abl2-eGFP (from UniProt Q4JIM5 74-1182) (natural protein) |  |  |  |  | 320 | 0.91 | 0.71 | 0.39 | 0.38 | 0.3 | 0.28 |
